Drawing on article PMC13397619, this text covers enrichment for 58 variants.

B1: NLV3 TCR beta chain (CDR3β only) (parent)
chain: ASSPTGGSPSPLH

In this test the parent is B1. Nature of the test: T-Switch: Jurkat TCRβ−/− cells expressing a CDR3 saturation-mutagenesis library, stained with two peptide-HLA-A*02:01 tetramers (original and novel peptide) plus anti-CD3, FACS-sorted into four gates, gDNA sequenced. Conditions: tetramers 1 µg/mL, 30 min on ice, SP, DP and SW gates expanded about 10 days between rounds ('two to three rounds of selection' in the Methods), unresolved parent, parent is a CDR3 fragment, scale: fold enrichment, numbering: sequential-on-construct, sequence starts at 1.

Where [1] appears, read: with both tetramers (double-negative gate, binds neither): HLA-A*02:01 with … and with …, gate DN: OPPOSITE: higher = more of the variant in the gate that binds neither peptide = LESS binding (or no expression; inferred). Fold enrichment of the CDR3 variant in one FACS gate of a two-tetram.
[2] abbreviates: with both tetramers (double-positive gate): HLA-A*02:01 with … and with …, gate DP: higher = more of the variant in the gate that binds both peptides. Fold enrichment of the CDR3 variant in one FACS gate of a two-tetramer stain. SP/DP/SW gates were expanded and re-sorted bef.

As to […] (CDR3 as printed); L12P derived by comparing it with the table's wild-type CDR3 ASSPTGGSPSPLH, the enrichment under setting [1] was found to be 1.2 and the enrichment under setting [2] amounted to 0.
For the variant […] (CDR3 as printed); P9Y derived by comparing it with the table's wild-type CDR3 ASSPTGGSPSPLH, the enrichment amounted to 0.562 under setting [1] and 0 under setting [2].
As for […] (CDR3 as printed); S3D derived by comparing it with the table's wild-type CDR3 ASSPTGGSPSPLH, the enrichment by setting is: under setting [1], 0.675; under setting [2], 0.
Turning to […] (CDR3 as printed); S8D derived by comparing it with the table's wild-type CDR3 ASSPTGGSPSPLH, the enrichment reads like this: under setting [1], 0.969; under setting [2], 0.
With […] (CDR3 as printed); T5W derived by comparing it with the table's wild-type CDR3 ASSPTGGSPSPLH, the enrichment reads like this: under setting [1], 0; under setting [2], 0.
Consider […] (CDR3 as printed); P4Q derived by comparing it with the table's wild-type CDR3 ASSPTGGSPSPLH, for which the enrichment runs as follows: under setting [1], 1.2; under setting [2], 0.
Regarding […] (CDR3 as printed); G7W derived by comparing it with the table's wild-type CDR3 ASSPTGGSPSPLH, the enrichment came to 1.22 under setting [1] and 0 under setting [2].
For […] (CDR3 as printed); A1L derived by comparing it with the table's wild-type CDR3 ASSPTGGSPSPLH, in that order: 0.861 and 0.
In the case of […] (CDR3 as printed); P9H derived by comparing it with the table's wild-type CDR3 ASSPTGGSPSPLH, the enrichment under setting [1] came to 0.681 and the enrichment under setting [2] came to 0.
In the case of […] (CDR3 as printed); T5F derived by comparing it with the table's wild-type CDR3 ASSPTGGSPSPLH, the enrichment reads like this: under setting [1], 0.464; under setting [2], 0.
With […] (CDR3 as printed); P11Y derived by comparing it with the table's wild-type CDR3 ASSPTGGSPSPLH, the enrichment is, setting by setting: under setting [1], 0.787; under setting [2], 0.
In the case of […] (CDR3 as printed); G7C derived by comparing it with the table's wild-type CDR3 ASSPTGGSPSPLH, the enrichment runs as follows: under setting [1], 0.947; under setting [2], 0.
For […] (CDR3 as printed); P4Y derived by comparing it with the table's wild-type CDR3 ASSPTGGSPSPLH, in that order: 0.624 and 0.
Regarding […] (CDR3 as printed); A1S derived by comparing it with the table's wild-type CDR3 ASSPTGGSPSPLH, the enrichment by setting is: under setting [1], 1.25; under setting [2], 0.
For […] (CDR3 as printed); P4K derived by comparing it with the table's wild-type CDR3 ASSPTGGSPSPLH, in that order: 0.891 and 0.
As to […] (CDR3 as printed); G7Y derived by comparing it with the table's wild-type CDR3 ASSPTGGSPSPLH, the enrichment came out at 0.917 under setting [1] and 0 under setting [2].
For […] (CDR3 as printed); S10K derived by comparing it with the table's wild-type CDR3 ASSPTGGSPSPLH, in that order: 1.05 and 0.
On to […] (CDR3 as printed); S3W derived by comparing it with the table's wild-type CDR3 ASSPTGGSPSPLH, for which the enrichment under setting [1] was determined as 0.749 and the enrichment under setting [2] came out at 0.
On to […] (CDR3 as printed); L12R derived by comparing it with the table's wild-type CDR3 ASSPTGGSPSPLH, for which the enrichment by setting is: under setting [1], 0.619; under setting [2], 0.
The corresponding values for […] (CDR3 as printed); G6D derived by comparing it with the table's wild-type CDR3 ASSPTGGSPSPLH are 0.99 and 0.
On to […] (CDR3 as printed); G6V derived by comparing it with the table's wild-type CDR3 ASSPTGGSPSPLH, for which the enrichment under setting [1] was 1.33 and the enrichment under setting [2] turned out to be 0.
Take […] (CDR3 as printed); P9E derived by comparing it with the table's wild-type CDR3 ASSPTGGSPSPLH: the enrichment under setting [1] came out at 0.929 and the enrichment under setting [2] stood at 0.
With […] (CDR3 as printed); P4I derived by comparing it with the table's wild-type CDR3 ASSPTGGSPSPLH, the enrichment was determined as 0.965 under setting [1] and 0 under setting [2].
Turning to […] (CDR3 as printed); T5Q derived by comparing it with the table's wild-type CDR3 ASSPTGGSPSPLH, the enrichment under setting [1] turned out to be 1.16 and the enrichment under setting [2] is 0.
As to […] (CDR3 as printed); S3Y derived by comparing it with the table's wild-type CDR3 ASSPTGGSPSPLH, the enrichment was 0.895 under setting [1] and 0 under setting [2].
For the variant […] (CDR3 as printed); P9R derived by comparing it with the table's wild-type CDR3 ASSPTGGSPSPLH, the enrichment amounted to 1.13 under setting [1] and 0 under setting [2].
Regarding […] (CDR3 as printed); G7A derived by comparing it with the table's wild-type CDR3 ASSPTGGSPSPLH, the enrichment was 0.658 under setting [1] and 0 under setting [2].
Take […] (CDR3 as printed); P4D derived by comparing it with the table's wild-type CDR3 ASSPTGGSPSPLH: the enrichment was 0.917 under setting [1] and 0 under setting [2].
[…] (CDR3 as printed); S2E derived by comparing it with the table's wild-type CDR3 ASSPTGGSPSPLH: the enrichment reads like this: under setting [1], 0.993; under setting [2], 0.
For the variant […] (CDR3 as printed); P4S derived by comparing it with the table's wild-type CDR3 ASSPTGGSPSPLH, the enrichment was found to be 0.973 under setting [1] and 0 under setting [2].
Regarding […] (CDR3 as printed); S2R derived by comparing it with the table's wild-type CDR3 ASSPTGGSPSPLH, the enrichment under setting [1] turned out to be 0.703 and the enrichment under setting [2] was 0.
As to […] (CDR3 as printed); S10I derived by comparing it with the table's wild-type CDR3 ASSPTGGSPSPLH, the enrichment worked out at 0.982 under setting [1] and 0 under setting [2].
For […] (CDR3 as printed); S10P derived by comparing it with the table's wild-type CDR3 ASSPTGGSPSPLH, in that order: 1.37 and 0.
With […] (CDR3 as printed); P9A derived by comparing it with the table's wild-type CDR3 ASSPTGGSPSPLH, the enrichment turned out to be 0.394 under setting [1] and 114 under setting [2].
For […] (CDR3 as printed); P4C derived by comparing it with the table's wild-type CDR3 ASSPTGGSPSPLH, in that order: 0.776 and 0.
Regarding […] (CDR3 as printed); A1H derived by comparing it with the table's wild-type CDR3 ASSPTGGSPSPLH, the enrichment stood at 0.916 under setting [1] and 0 under setting [2].
As for […] (CDR3 as printed); G7R derived by comparing it with the table's wild-type CDR3 ASSPTGGSPSPLH, the enrichment under setting [1] stood at 1.17 and the enrichment under setting [2] worked out at 0.
[…] (CDR3 as printed); P4A derived by comparing it with the table's wild-type CDR3 ASSPTGGSPSPLH: the enrichment reads like this: under setting [1], 0.738; under setting [2], 0.
For […] (CDR3 as printed); H13R derived by comparing it with the table's wild-type CDR3 ASSPTGGSPSPLH, in that order: 0.602 and 0.
With […] (CDR3 as printed); P4G derived by comparing it with the table's wild-type CDR3 ASSPTGGSPSPLH, the enrichment worked out at 0.753 under setting [1] and 0 under setting [2].
For […] (CDR3 as printed); S8L derived by comparing it with the table's wild-type CDR3 ASSPTGGSPSPLH, the enrichment amounted to 1.58 under setting [1] and 0 under setting [2].
For the variant […] (CDR3 as printed); S3T derived by comparing it with the table's wild-type CDR3 ASSPTGGSPSPLH, the enrichment is, setting by setting: under setting [1], 0.779; under setting [2], 0.
In the case of […] (CDR3 as printed); H13T derived by comparing it with the table's wild-type CDR3 ASSPTGGSPSPLH, the enrichment is 0.524 under setting [1] and 0 under setting [2].
For […] (CDR3 as printed); G6A derived by comparing it with the table's wild-type CDR3 ASSPTGGSPSPLH, the enrichment runs as follows: under setting [1], 0.582; under setting [2], 0.
For the variant […] (CDR3 as printed); H13K derived by comparing it with the table's wild-type CDR3 ASSPTGGSPSPLH, the enrichment is, setting by setting: under setting [1], 0.708; under setting [2], 0.
Regarding […] (CDR3 as printed); H13Y derived by comparing it with the table's wild-type CDR3 ASSPTGGSPSPLH, the enrichment runs as follows: under setting [1], 0.87; under setting [2], 0.
The corresponding values for […] (CDR3 as printed); S3H derived by comparing it with the table's wild-type CDR3 ASSPTGGSPSPLH are 0.931 and 0.
For […] (CDR3 as printed); P9F derived by comparing it with the table's wild-type CDR3 ASSPTGGSPSPLH, in that order: 0.851 and 0.
With […] (CDR3 as printed); H13W derived by comparing it with the table's wild-type CDR3 ASSPTGGSPSPLH, the enrichment under setting [1] turned out to be 0.345 and the enrichment under setting [2] was found to be 0.
Regarding […] (CDR3 as printed); G7T derived by comparing it with the table's wild-type CDR3 ASSPTGGSPSPLH, the enrichment under setting [1] was 0.754 and the enrichment under setting [2] is 0.
The corresponding values for […] (CDR3 as printed); S8K derived by comparing it with the table's wild-type CDR3 ASSPTGGSPSPLH are 0.743 and 0.
Take […] (CDR3 as printed); P9I derived by comparing it with the table's wild-type CDR3 ASSPTGGSPSPLH: the enrichment runs as follows: under setting [1], 1.11; under setting [2], 0.
On to […] (CDR3 as printed); P11L derived by comparing it with the table's wild-type CDR3 ASSPTGGSPSPLH, for which the enrichment runs as follows: under setting [1], 0.702; under setting [2], 0.
Turning to […] (CDR3 as printed); P9C derived by comparing it with the table's wild-type CDR3 ASSPTGGSPSPLH, the enrichment worked out at 0.869 under setting [1] and 0 under setting [2].
The corresponding values for […] (CDR3 as printed); A1M derived by comparing it with the table's wild-type CDR3 ASSPTGGSPSPLH are 1.12 and 0.
As for […] (CDR3 as printed); T5I derived by comparing it with the table's wild-type CDR3 ASSPTGGSPSPLH, the enrichment by setting is: under setting [1], 0.355; under setting [2], 0.
As for […] (CDR3 as printed); P11W derived by comparing it with the table's wild-type CDR3 ASSPTGGSPSPLH, the enrichment is, setting by setting: under setting [1], 0.701; under setting [2], 0.
Take […] (CDR3 as printed); H13V derived by comparing it with the table's wild-type CDR3 ASSPTGGSPSPLH: the enrichment amounted to 0.58 under setting [1] and 0 under setting [2].
